Reference: patent US11965039B2, “Compstatin analogues and their medical uses” (priority 2018, dated 2024)
Starred links: 1 amine or outer side, 2 acyl side, 3 side chain; linkers in the order of their positions; H or OH if unused. Positions of bridges follow the written chain, without caps; N, C: chain ends. Non-standard residues stand in square brackets, D forms with d. Groups on a side chain read outwards from the residue. *: point of attachment. Trp(1-Me) = Cn1cc(C[C@H](N)C(=O)O)c2ccccc21; C18 diacid = O=C(O)CCCCCCCCCCCCCCCCC(=O)*; γGlu = O=C(O)[C@H](CCC(=O)[*:2])N[*:1]; Sar = CNCC(=O)O

target: Human C3 (Complement tech cat #A113c) (human, UniProt P01024 23-1663); test: cell-based or functional assay
Sequence (P01024 23-1663 limits assumed): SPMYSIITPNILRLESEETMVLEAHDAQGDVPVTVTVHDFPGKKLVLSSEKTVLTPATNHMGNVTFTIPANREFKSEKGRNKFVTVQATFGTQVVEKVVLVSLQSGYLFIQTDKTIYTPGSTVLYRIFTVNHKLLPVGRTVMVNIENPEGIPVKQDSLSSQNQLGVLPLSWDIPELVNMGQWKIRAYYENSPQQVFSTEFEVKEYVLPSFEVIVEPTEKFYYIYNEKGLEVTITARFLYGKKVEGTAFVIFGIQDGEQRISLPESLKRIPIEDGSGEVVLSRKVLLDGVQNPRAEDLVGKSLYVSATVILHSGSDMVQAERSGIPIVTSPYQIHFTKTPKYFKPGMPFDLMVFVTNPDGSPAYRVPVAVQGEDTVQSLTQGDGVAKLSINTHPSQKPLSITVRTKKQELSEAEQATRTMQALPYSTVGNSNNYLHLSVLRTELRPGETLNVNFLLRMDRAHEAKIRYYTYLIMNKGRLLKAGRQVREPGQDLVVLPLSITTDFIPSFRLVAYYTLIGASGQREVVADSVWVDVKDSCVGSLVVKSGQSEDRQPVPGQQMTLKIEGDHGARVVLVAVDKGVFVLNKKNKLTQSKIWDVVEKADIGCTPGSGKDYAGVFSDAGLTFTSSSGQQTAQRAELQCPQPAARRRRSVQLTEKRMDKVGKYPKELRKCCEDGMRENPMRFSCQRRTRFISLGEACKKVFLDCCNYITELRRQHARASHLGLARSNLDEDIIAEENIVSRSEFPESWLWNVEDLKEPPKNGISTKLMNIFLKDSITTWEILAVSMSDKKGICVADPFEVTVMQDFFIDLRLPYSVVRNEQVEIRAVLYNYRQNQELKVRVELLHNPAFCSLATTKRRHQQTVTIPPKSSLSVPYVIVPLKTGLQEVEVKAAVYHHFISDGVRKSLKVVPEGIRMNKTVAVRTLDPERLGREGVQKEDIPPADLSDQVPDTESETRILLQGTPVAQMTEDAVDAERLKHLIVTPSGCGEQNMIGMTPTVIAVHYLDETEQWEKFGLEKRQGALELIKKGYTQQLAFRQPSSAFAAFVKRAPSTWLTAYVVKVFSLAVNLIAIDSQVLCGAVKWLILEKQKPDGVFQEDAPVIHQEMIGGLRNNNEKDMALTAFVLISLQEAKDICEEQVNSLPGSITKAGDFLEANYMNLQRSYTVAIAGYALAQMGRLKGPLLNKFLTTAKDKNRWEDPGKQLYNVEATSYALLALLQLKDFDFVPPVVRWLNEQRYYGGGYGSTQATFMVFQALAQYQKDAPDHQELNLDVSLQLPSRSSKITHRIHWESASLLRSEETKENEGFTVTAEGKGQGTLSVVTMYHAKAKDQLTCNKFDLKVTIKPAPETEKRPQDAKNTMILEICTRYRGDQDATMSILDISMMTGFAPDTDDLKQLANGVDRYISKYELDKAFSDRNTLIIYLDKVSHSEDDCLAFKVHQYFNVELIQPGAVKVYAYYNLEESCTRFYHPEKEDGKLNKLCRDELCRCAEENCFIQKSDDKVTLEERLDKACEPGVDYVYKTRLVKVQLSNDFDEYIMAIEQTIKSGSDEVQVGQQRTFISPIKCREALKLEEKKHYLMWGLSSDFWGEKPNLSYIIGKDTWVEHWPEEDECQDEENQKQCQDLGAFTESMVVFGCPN

Binder	inhibition of hemolysis IC50
Ac-ASGEYCI[Trp(1-Me)]QDWGEHRC[Sar]EGEK([γGlu-Gly-γGlu-C18 diacid])-NH2 (disulfide 6-16; SMILES CC[C@H](C)[C@@H]1NC(=O)[C@@H](NC(=O)[C@H](Cc2ccc(O)cc2)NC(=O)[C@H](CCC(=O)O)NC(=O)CNC(=O)[C@H](CO)NC(=O)[C@H](C)NC(C)=O)CSSC[C@@H](C(=O)N(C)CC(=O)N[C@@H](CCC(=O)O)C(=O)NCC(=O)N[C@@H](CCC(=O)O)C(=O)N[C@@H](CCCCNC(=O)CC[C@H](NC(=O)CNC(=O)CC[C@H](NC(=O)CCCCCCCCCCCCCCCCC(=O)O)C(=O)O)C(=O)O)C(N)=O)NC(=O)[C@H](CCCNC(=N)N)NC(=O)[C@H](Cc2c[nH]cn2)NC(=O)[C@H](CCC(=O)O)NC(=O)CNC(=O)[C@H](Cc2c[nH]c3ccccc23)NC(=O)[C@H](CC(=O)O)NC(=O)[C@H](CCC(N)=O)NC(=O)[C@H](Cc2cn(C)c3ccccc23)NC1=O) [Compound 113]	< 500 nM
Ac-SEYCI[Trp(1-Me)]QDWGEHRC[Sar]EGEK([γGlu-Gly-γGlu-C18 diacid])-NH2 (disulfide 4-14; SMILES CC[C@H](C)[C@@H]1NC(=O)[C@@H](NC(=O)[C@H](Cc2ccc(O)cc2)NC(=O)[C@H](CCC(=O)O)NC(=O)[C@H](CO)NC(C)=O)CSSC[C@@H](C(=O)N(C)CC(=O)N[C@@H](CCC(=O)O)C(=O)NCC(=O)N[C@@H](CCC(=O)O)C(=O)N[C@@H](CCCCNC(=O)CC[C@H](NC(=O)CNC(=O)CC[C@H](NC(=O)CCCCCCCCCCCCCCCCC(=O)O)C(=O)O)C(=O)O)C(N)=O)NC(=O)[C@H](CCCNC(=N)N)NC(=O)[C@H](Cc2c[nH]cn2)NC(=O)[C@H](CCC(=O)O)NC(=O)CNC(=O)[C@H](Cc2c[nH]c3ccccc23)NC(=O)[C@H](CC(=O)O)NC(=O)[C@H](CCC(N)=O)NC(=O)[C@H](Cc2cn(C)c3ccccc23)NC1=O) [Compound 114]	< 500 nM
Ac-SEYCI[Trp(1-Me)]QDWGEHRC[Sar]EGEK([γGlu-Lys-γGlu-C18 diacid])-NH2 (disulfide 4-14) [Compound 116]	< 500 nM
Ac-SEYCI[Trp(1-Me)]QDWGEHRC[Sar]EGAK([γGlu-Gly-γGlu-C18 diacid])-NH2 (disulfide 4-14; SMILES CC[C@H](C)[C@@H]1NC(=O)[C@@H](NC(=O)[C@H](Cc2ccc(O)cc2)NC(=O)[C@H](CCC(=O)O)NC(=O)[C@H](CO)NC(C)=O)CSSC[C@@H](C(=O)N(C)CC(=O)N[C@@H](CCC(=O)O)C(=O)NCC(=O)N[C@@H](C)C(=O)N[C@@H](CCCCNC(=O)CC[C@H](NC(=O)CNC(=O)CC[C@H](NC(=O)CCCCCCCCCCCCCCCCC(=O)O)C(=O)O)C(=O)O)C(N)=O)NC(=O)[C@H](CCCNC(=N)N)NC(=O)[C@H](Cc2c[nH]cn2)NC(=O)[C@H](CCC(=O)O)NC(=O)CNC(=O)[C@H](Cc2c[nH]c3ccccc23)NC(=O)[C@H](CC(=O)O)NC(=O)[C@H](CCC(N)=O)NC(=O)[C@H](Cc2cn(C)c3ccccc23)NC1=O) [Compound 112]	< 500 nM
Ac-SEYCI[Trp(1-Me)]QDWGEHRC[Sar]EGKK([γGlu-Gly-γGlu-C18 diacid])-NH2 (disulfide 4-14; SMILES CC[C@H](C)[C@@H]1NC(=O)[C@@H](NC(=O)[C@H](Cc2ccc(O)cc2)NC(=O)[C@H](CCC(=O)O)NC(=O)[C@H](CO)NC(C)=O)CSSC[C@@H](C(=O)N(C)CC(=O)N[C@@H](CCC(=O)O)C(=O)NCC(=O)N[C@@H](CCCCN)C(=O)N[C@@H](CCCCNC(=O)CC[C@H](NC(=O)CNC(=O)CC[C@H](NC(=O)CCCCCCCCCCCCCCCCC(=O)O)C(=O)O)C(=O)O)C(N)=O)NC(=O)[C@H](CCCNC(=N)N)NC(=O)[C@H](Cc2c[nH]cn2)NC(=O)[C@H](CCC(=O)O)NC(=O)CNC(=O)[C@H](Cc2c[nH]c3ccccc23)NC(=O)[C@H](CC(=O)O)NC(=O)[C@H](CCC(N)=O)NC(=O)[C@H](Cc2cn(C)c3ccccc23)NC1=O) [Compound 115]	< 250 nM
